Our source for the screen value values is PMC11922060.

B1: Sumo-tagged Drosophila Spd-2 SP2D (Spd-2 697-998), wild type [D. melanogaster] / itself (parent)
chain: LLPLKVTHTTLCWGSTKLRTDVRKSMQVKNTADKRLVIRLGIQGPGFQLVGTDSSTITLQAMECRSVVINFCPTVCGAAIGALSFYAPPGAHNSNQPGLEIPLYGYGGSASITINGLLKGPVGASFLTIGDVCELSAGPLSANLKFHNKGPLTAFVGISVDSTVLMKLRLSEAFEVRPSRLILPPNSERCVQILFRPNREDLKNILKKTAQVLTLANMRIFCGDEPNRQRMRSLVQRMSSRQREKLTSPMLDSIWGEFPDEQPVRNIGQLNEPPEFILDLVTVVRIIDVALTLNRDFDESSE

The variants in this experiment derive from B1. Kind of experiment: SEC-MALS. The following applies: with itself; 200 µM protein; read off a plot. Background: Size exclusion chromatography separates by hydrodynamic size, large species first.
With chain 1 F126D, the screen value is 46 kDa. With chain 1 P121D the figure was 45 kDa.
